Tests used:
VEGF-A = target: T1, VEGF-A (human, UniProt P15692 207-395); experiment: Biacore SPR; DVD-Ig captured on anti-human Fc, antigen injected
T1 construct: also called hVEGF165
Experimental: (§1) For example, approximately 9000 RU of goat anti-human Fc specific polyclonal antibody (Thermo Fisher Scientific Inc., Rockford, Ill.) diluted in 10 mM sodium acetate (pH 4.5) is directly immobilized across a CM5 research grade biosensor chip using a standard amine coupling kit according to manufacturer's instructions and procedures at 25 μg/ml. Unreacted moieties on the biosensor surface were blocked with ethanolamine. For kinetic analysis, rate equations derived from the 1:1 Langmuir binding model were fitted simultaneously to multiple antigen injections (using global fit analysis) with the use of Scrubber 2 (BioLogic Software), Biacore Biaevaluation 4.0.1 software or Biacore T100 Evaluation software. Purified antibodies or DVD-Ig molecules were diluted in running buffer for capture across goat anti-human Fc reaction surfaces. Antibodies or DVD-Ig molecules to be captured as a ligand (1 μg/ml) were injected over reaction matrices at a flow rate of 10 μl/minute. During the assay, all measurements were referenced against the capture surface alone (i.e., with no captured antibody or DVD-Ig molecule). […] The equilibrium dissociation constant KD (M) of the reaction between antibodies and the target antigen was then calculated from the kinetic rate constants by the following formula: KD=Koff/Kₒₙ. Binding was recorded as a function of time and kinetic rate constants were calculated.

PDGF-BB = target: T2, PDGF-BB (human, UniProt P01127 82-190, limits assumed); experiment: as above
T2 construct: also called human PDGF-BB; hPDGF-BB
T2 sequence (P01127 82-190 limits assumed): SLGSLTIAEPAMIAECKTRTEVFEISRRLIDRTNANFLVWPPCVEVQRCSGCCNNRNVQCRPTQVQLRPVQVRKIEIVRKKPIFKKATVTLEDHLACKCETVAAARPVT
Experimental: as §1

T1 sequence (P15692 other isoform, or with tags, fused parts or gaps limits assumed): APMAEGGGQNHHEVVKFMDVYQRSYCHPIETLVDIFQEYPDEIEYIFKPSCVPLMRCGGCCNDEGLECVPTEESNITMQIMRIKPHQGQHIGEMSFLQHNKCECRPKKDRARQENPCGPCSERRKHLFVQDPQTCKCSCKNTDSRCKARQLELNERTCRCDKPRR

Kd (VEGF-A)	kon (VEGF-A)	Kd (PDGF-BB)	kon (PDGF-BB)	Binder
1.7 pM	1.2e+07 M⁻¹ s⁻¹	0.19 pM	6e+07 M⁻¹ s⁻¹	CL-34565_GS_CL-33675 (PR-1613183) (bispecific antibody, human IgG1, kappa, L234A L235A, DVD-Ig: outer CL-34565 (VEGF), inner CL-33675 (PDGF), linkers GS-H10/GS-L10(dR); Human IgG1 L234A, L235A, H435A with kappa) heavy: EVQLVQSGSELKKPGASVKVSCKASGYTFTDYGMYWVRQAPGQGLEWMGWIDTETGDPTYADDFKGRFVFSLDTSVSTAYLQISSLKAEDTAVYYCARTNYYYRNYMFYFDYWGQGTMVTVSSGGGGSGGGGSEVTLRESGPALVKPTQTLTLTCTFSGFSLSTYGMGVGWIRQPPGKALEWLANIWWDDDKYYNPSLKNRLTISKDTSKNQVVLTMTNMDPVDTATYYCARIESSGPKYSFDYWGQGTMVTVSSASTKGPSVFPLAPSSKSTSGGTAALGCLVKDYFPEPVTVSWNSGALTSGVHTFPAVLQSSGLYSLSSVVTVPSSSLGTQTYICNVNHKPSNTKVDKKVEPKSCDKTHTCPPCPAPEAAGGPSVFLFPPKPKDTLMISRTPEVTCVVVDVSHEDPEVKFNWYVDGVEVHNAKTKPREEQYNSTYRVVSVLTVLHQDWLNGKEYKCKVSNKALPAPIEKTISKAKGQPREPQVYTLPPSREEMTKNQVSLTCLVKGFYPSDIAVEWESNGQPENNYKTTPPVLDSDGSFFLYSKLTVDKSRWQQGNVFSCSVMHEALHNAYTQKSLSLSPGK light: EIVLTQSPATLSLSPGERATLFCRASQSVSNHMHWYQQKPGQAPRLLIYGASILESGVPARFSGSGSGTDFTLTISSLEPEDFAVYYCQQSWYDPITFGQGTKLEIKGGSGGGGSGGEIVLTQSPGTLSLSPGERATLSCRASSGSIWYSFVSWYQQKPGQAPRLLIYADDQRASGIPDRFSGSGSGTDFTLTISRLEPEDFAVYYCQSYGINIDVVFGGGTKVEIKRTVAAPSVFIFPPSDEQLKSGTASVVCLLNNFYPREAKVQWKVDNALQSGNSQESVTEQDSKDSTYSLSSTLTLSKADYEKHKVYACEVTHQGLSSPVTKSFNRGEC
1.1 pM	1.5e+07 M⁻¹ s⁻¹	5.4 pM	3.5e+07 M⁻¹ s⁻¹	CL-34565_GS_9E8.4 (PR-1613184) (bispecific antibody, human IgG1, kappa, L234A L235A, DVD-Ig: outer CL-34565 (VEGF), inner hBDI-9E8.4 (PDGF), linkers GS-H10/GS-L10(dR); Human IgG1 L234A, L235A, H435A with kappa) heavy: EVQLVQSGSELKKPGASVKVSCKASGYTFTDYGMYWVRQAPGQGLEWMGWIDTETGDPTYADDFKGRFVFSLDTSVSTAYLQISSLKAEDTAVYYCARTNYYYRNYMFYFDYWGQGTMVTVSSGGGGSGGGGSEVTLRESGPALVKPTQTLTLTCTFSGFSLSTYGMGVGWIRQPPGKALEWLANIWWDDDKYYNPSLKNRLTISKDTSKNQVVLTMTNMDPVDTATYYCARIESIGTTYSFDYWGQGTMVTVSSASTKGPSVFPLAPSSKSTSGGTAALGCLVKDYFPEPVTVSWNSGALTSGVHTFPAVLQSSGLYSLSSVVTVPSSSLGTQTYICNVNHKPSNTKVDKKVEPKSCDKTHTCPPCPAPEAAGGPSVFLFPPKPKDTLMISRTPEVTCVVVDVSHEDPEVKFNWYVDGVEVHNAKTKPREEQYNSTYRVVSVLTVLHQDWLNGKEYKCKVSNKALPAPIEKTISKAKGQPREPQVYTLPPSREEMTKNQVSLTCLVKGFYPSDIAVEWESNGQPENNYKTTPPVLDSDGSFFLYSKLTVDKSRWQQGNVFSCSVMHEALHNAYTQKSLSLSPGK light: EIVLTQSPATLSLSPGERATLFCRASQSVSNHMHWYQQKPGQAPRLLIYGASILESGVPARFSGSGSGTDFTLTISSLEPEDFAVYYCQQSWYDPITFGQGTKLEIKGGSGGGGSGGEFVLTQSPGTLSLSPGERATLSCERSSGDIGDSYVSWYQQKPGQAPRLVIYADDQRPSGIPDRFSGSGSGTDFTLTISRLEPEDFAVYYCQSYDINIDIVFGGGTKVEIKRTVAAPSVFIFPPSDEQLKSGTASVVCLLNNFYPREAKVQWKVDNALQSGNSQESVTEQDSKDSTYSLSSTLTLSKADYEKHKVYACEVTHQGLSSPVTKSFNRGEC
380 pM	470000 M⁻¹ s⁻¹	8.8 pM	5e+07 M⁻¹ s⁻¹	9E8.4E-GS-9A8.12 (PR-1578137) (bispecific antibody, human IgG1, kappa, L234A L235A, DVD-Ig: outer hBDI-9E8.4E (PDGF), inner hBEW-9A8.12 (VEGF), linkers GS-H10/GS-L10; Human IgG1 L234A, L235A, H435A with kappa) heavy: EVTLRESGPALVKPTQTLTLTCTFSGFSLSTYGMGVGWIRQPPGKALEWLANIWWDDDKYYNPSLKNRLTISKDTSKNQVVLTMTNMDPVDTATYYCARIESIGTTYSFDYWGQGTMVTVSSGGGGSGGGGSEVQLVQSGAEVKKPGASVKVSCKASGYTFTNYGMYWVRQAPGQGLEWMGWINTETGKPIYADDFKGRVTMTTDTSTSTAYMELRSLRSDDTAVYYCARVDYDGSFWFAYWGQGTLVTVSSASTKGPSVFPLAPSSKSTSGGTAALGCLVKDYFPEPVTVSWNSGALTSGVHTFPAVLQSSGLYSLSSVVTVPSSSLGTQTYICNVNHKPSNTKVDKKVEPKSCDKTHTCPPCPAPEAAGGPSVFLFPPKPKDTLMISRTPEVTCVVVDVSHEDPEVKFNWYVDGVEVHNAKTKPREEQYNSTYRVVSVLTVLHQDWLNGKEYKCKVSNKALPAPIEKTISKAKGQPREPQVYTLPPSREEMTKNQVSLTCLVKGFYPSDIAVEWESNGQPENNYKTTPPVLDSDGSFFLYSKLTVDKSRWQQGNVFSCSVMHEALHNAYTQKSLSLSPGK light: EFVLTQSPGTLSLSPGERATLSCERSSGDIGESYVSWYQQKPGQAPRLVIYADDQRPSGIPDRFSGSGSGTDFTLTISRLEPEDFAVYYCQSYDINIDIVFGGGTKVEIKRGGSGGGGSGDTQLTQSPSSLSASVGDRVTITCRASESVSTVIHWYQQKPGKQPKLLIHGASNLESGVPSRFSGSGSGTDFTLTISSLQPEDFATYFCQQHWNDPPTFGQGTKLEIKRTVAAPSVFIFPPSDEQLKSGTASVVCLLNNFYPREAKVQWKVDNALQSGNSQESVTEQDSKDSTYSLSSTLTLSKADYEKHKVYACEVTHQGLSSPVTKSFNRGEC
160 pM	2.2e+06 M⁻¹ s⁻¹	6.4 pM	5e+07 M⁻¹ s⁻¹	9E8.4E-SL-9A8.12 (PR-1577548) (bispecific antibody, human IgG1, kappa, L234A L235A, DVD-Ig: outer hBDI-9E8.4E (PDGF), inner hBEW-9A8.12 (VEGF), linkers HG-short/LK-long; Human IgG1 L234A, L235A, H435A with kappa) heavy: EVTLRESGPALVKPTQTLTLTCTFSGFSLSTYGMGVGWIRQPPGKALEWLANIWWDDDKYYNPSLKNRLTISKDTSKNQVVLTMTNMDPVDTATYYCARIESIGTTYSFDYWGQGTMVTVSSASTKGPEVQLVQSGAEVKKPGASVKVSCKASGYTFTNYGMYWVRQAPGQGLEWMGWINTETGKPIYADDFKGRVTMTTDTSTSTAYMELRSLRSDDTAVYYCARVDYDGSFWFAYWGQGTLVTVSSASTKGPSVFPLAPSSKSTSGGTAALGCLVKDYFPEPVTVSWNSGALTSGVHTFPAVLQSSGLYSLSSVVTVPSSSLGTQTYICNVNHKPSNTKVDKKVEPKSCDKTHTCPPCPAPEAAGGPSVFLFPPKPKDTLMISRTPEVTCVVVDVSHEDPEVKFNWYVDGVEVHNAKTKPREEQYNSTYRVVSVLTVLHQDWLNGKEYKCKVSNKALPAPIEKTISKAKGQPREPQVYTLPPSREEMTKNQVSLTCLVKGFYPSDIAVEWESNGQPENNYKTTPPVLDSDGSFFLYSKLTVDKSRWQQGNVFSCSVMHEALHNAYTQKSLSLSPGK light: EFVLTQSPGTLSLSPGERATLSCERSSGDIGESYVSWYQQKPGQAPRLVIYADDQRPSGIPDRFSGSGSGTDFTLTISRLEPEDFAVYYCQSYDINIDIVFGGGTKVEIKRTVAAPSVFIFPPDTQLTQSPSSLSASVGDRVTITCRASESVSTVIHWYQQKPGKQPKLLIHGASNLESGVPSRFSGSGSGTDFTLTISSLQPEDFATYFCQQHWNDPPTFGQGTKLEIKRTVAAPSVFIFPPSDEQLKSGTASVVCLLNNFYPREAKVQWKVDNALQSGNSQESVTEQDSKDSTYSLSSTLTLSKADYEKHKVYACEVTHQGLSSPVTKSFNRGEC
230 pM	640000 M⁻¹ s⁻¹	5 pM	5e+07 M⁻¹ s⁻¹	9E8.4E-LS-9A8.12 (PR-1577550) (bispecific antibody, human IgG1, kappa, L234A L235A, DVD-Ig: outer hBDI-9E8.4E (PDGF), inner hBEW-9A8.12 (VEGF), linkers HG-long/LK-short; Human IgG1 L234A, L235A, H435A with kappa) heavy: EVTLRESGPALVKPTQTLTLTCTFSGFSLSTYGMGVGWIRQPPGKALEWLANIWWDDDKYYNPSLKNRLTISKDTSKNQVVLTMTNMDPVDTATYYCARIESIGTTYSFDYWGQGTMVTVSSASTKGPSVFPLAPEVQLVQSGAEVKKPGASVKVSCKASGYTFTNYGMYWVRQAPGQGLEWMGWINTETGKPIYADDFKGRVTMTTDTSTSTAYMELRSLRSDDTAVYYCARVDYDGSFWFAYWGQGTLVTVSSASTKGPSVFPLAPSSKSTSGGTAALGCLVKDYFPEPVTVSWNSGALTSGVHTFPAVLQSSGLYSLSSVVTVPSSSLGTQTYICNVNHKPSNTKVDKKVEPKSCDKTHTCPPCPAPEAAGGPSVFLFPPKPKDTLMISRTPEVTCVVVDVSHEDPEVKFNWYVDGVEVHNAKTKPREEQYNSTYRVVSVLTVLHQDWLNGKEYKCKVSNKALPAPIEKTISKAKGQPREPQVYTLPPSREEMTKNQVSLTCLVKGFYPSDIAVEWESNGQPENNYKTTPPVLDSDGSFFLYSKLTVDKSRWQQGNVFSCSVMHEALHNAYTQKSLSLSPGK light: EFVLTQSPGTLSLSPGERATLSCERSSGDIGESYVSWYQQKPGQAPRLVIYADDQRPSGIPDRFSGSGSGTDFTLTISRLEPEDFAVYYCQSYDINIDIVFGGGTKVEIKRTVAAPDTQLTQSPSSLSASVGDRVTITCRASESVSTVIHWYQQKPGKQPKLLIHGASNLESGVPSRFSGSGSGTDFTLTISSLQPEDFATYFCQQHWNDPPTFGQGTKLEIKRTVAAPSVFIFPPSDEQLKSGTASVVCLLNNFYPREAKVQWKVDNALQSGNSQESVTEQDSKDSTYSLSSTLTLSKADYEKHKVYACEVTHQGLSSPVTKSFNRGEC
